This passage reports Kd results from paper PMC7674511, “The Chaperone BAG6 Regulates Cellular Homeostasis between Autophagy and Apoptosis by Holding LC3B” (iScience, 2020).

No end group written: not given here.

The target in the assay is LC3B-I (UniProt Q9GZQ8 1-120). Briefly: fluorescence polarisation; fluorescence anisotropy; peptide at 1 μM, LC3B-I or Pro-LC3B added from 0 to 50 μM; Kd by nonlinear curve fitting; three independent experiments. As to conditions: both partners purified. In general terms: In fluorescence polarisation assays a small probe gives low polarisation when free and higher when bound to something large.

B1: BAG6 LIR1 peptide (residues 124-143) (peptide)
peptide: VHDRNANSYVMVGTFNLPSD
modifications: also: FITC label, position not given here
notes: BAG6, 20-aa peptide encompassing the LIR1 motif (132-135 YVMV), residues 124-143; it has the same name there; also called wild-type BAG6 LIR-1 peptide; source: synthetic peptide
B1 displayed a Kd of 22.2 µM.

The Kd is the constant that tells how readily two partners part at equilibrium. Higher therefore signals lower affinity.
